± gives the standard deviation.
Experiment: protein stability index of a GFP-peptide fusion (GPS, HEK-293T) (PSI 1-6); higher = more stable
[1] = treatment: DMSO, c terminus: a fixed tail appended
[2] = treatment: MLN4924 1 uM, 8 h, c terminus: a fixed tail appended
[3] = treatment: DMSO, c terminus: native
[4] = treatment: MLN4924 1 uM, 8 h, c terminus: native
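Note: 24-mer peptide tiles fused after GFP, lentivirally expressed, FACS-sorted into six equal bins by GFP/DsRed ratio, decoded by Illumina sequencing, PSI is the read-weighted mean bin number.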

| Sequence | protein stability index [1] | protein stability index [2] | protein stability index [3] | protein stability index [4] |
| --- | --- | --- | --- | --- |
| GEYVVTAKAEGFTASTKNCMVGYD [CPXM2] | 4.26 ± 0.28 | 3.65 ± 0.054 | – | – |
| REAKEGDCGDILRLIRELAEFEKL [SAT2] | 2.95 ± 0.3 | 3.09 ± 0.47 | – | – |
| IVQGSSGAQGSGGGSTSAHYAVNS [CARM1] | – | 3.98 ± 0.91 | – | – |
| EGYQALYHAVVEPMLWNPSGTPKR [C22orf31] | 2.39 ± 0.28 | 2.79 ± 0.61 | – | – |
| STFRTPAVLFTGIVALYIASGLTG [ATL3] | 3.09 ± 0.38 | 3.19 ± 0.24 | – | – |
| RSLLRLRATRAGAAEEPGVRGLLA [C2CD2L] | 3.17 ± 0.43 | 3.44 ± 0.18 | – | – |
| IGCVFAELLTGQPLWPGKSDVDQL [CDKL4] | 2.09 ± 0.32 | 2.15 ± 0.57 | – | – |
| KLRQMRVEKFIYENHPDVFSDSSM [MYOZ1] | 2.43 ± 0.17 | 2.64 ± 0.41 | – | – |
| MVKEPVEDTDPSTLSFNMSDKYPI [EDARADD] | 4.37 ± 0.43 | 4.5 ± 0.29 | – | – |
| TDRSHIYTFTDTFTEKLWPLFYPG [TRIM39] | 2.16 ± 0.47 | 2.15 ± 0.56 | – | – |
| YHEAPMTRKHYQVTGYGINGTGDS [POMT2] | 2.97 ± 0.36 | 3.42 ± 0.31 | – | – |
| VTTYLHKDYNNLWIIKKHNTNSDP [POMT2] | 2.31 ± 0.48 | 2.5 ± 0.23 | – | – |
| ERRGGLPPLPLHPGGDQGGPPVGP [WAS] | 4.95 ± 0.4 | 5.22 ± 0.2 | – | – |
| EGYEFCHNRKVLTIFSASNYYEVG [PPEF2] | 2.31 ± 0.44 | 2.05 ± 0.44 | – | – |
| TPIPWLSSGEPVDYNVDIGIPLDG [MYOZ1] | 3.98 ± 0.19 | 4.07 ± 0.2 | – | – |
| DLPEVESLPRDRVLGFLIENFKGL [VPS39] | 3.27 ± 0.59 | 3.19 ± 0.34 | – | – |
| QLPGLLNFGEFKCSDSDKKCHLWT [CLCN6] | 2.56 ± 0.43 | 2.45 ± 0.36 | – | – |
| AFPQTPFKTGNSTATCTTNNNPNS [KCNA3] | 4.61 ± 0.4 | 4.62 ± 0.17 | – | – |
| LRREKPSEEMVKMVLSRPCHPDDQ [INTS3] | 4.61 ± 0.12 | 4.69 ± 0.15 | – | – |
| EFMKTLEKTGPQLTSRIKGDWIGL [DENND6A] | 2.06 ± 0.23 | 2.23 ± 0.25 | – | – |
| LSICFTCFKAAFLDFKDLLESEDW [TEX19] | 2.62 ± 0.5 | 2.69 ± 0.39 | – | – |
| HSKQYRCLSFQPECSMKLTPLVLE [VDR] | 2.5 ± 0.29 | 2.42 ± 0.14 | – | – |
| GDLFESTPEVAAAPKPDAAPSIDL [SNAP91] | 5.3 ± 0.29 | 5.27 ± 0.16 | – | – |

| Sequence | protein stability index [1] | protein stability index [2] | protein stability index [3] | protein stability index [4] |
| --- | --- | --- | --- | --- |
| AMEYAPGGTLAEFIQKRCNSLLEE [NEK8] | 3.56 ± 0.36 | 3.3 ± 0.29 | – | – |
| PKFKKWCDDYFFIAHRGERRGIGG [CPOX] | 2.54 ± 0.14 | 2.56 ± 0.26 | – | – |
| FVLGKGRGAAAAGGPQRIPAHRFV [BTBD1] | 2.3 ± 0.25 | 2.71 ± 0.31 | – | – |
| GHKEEEDGEGAGPGEQGGGKLVLS [ESRRA] | 5.3 ± 0.27 | 5.42 ± 0.4 | – | – |
| VLTKKFQVTMRGLLSCLSKSNNRL [FBXO39] | 3.16 ± 0.51 | 3.24 ± 1.2 | – | – |
| VRAAQLCSQHWGGMASFRFPETTF [TBX6] | 2.48 ± 0.59 | 2.1 ± 0.34 | – | – |
| EEIKFYELGEEAMEKFREDEGFIK [KCNA1] | 4.71 ± 0.36 | 4.84 ± 0.14 | – | – |
| MLRSGLSGLGSCLPGSYLSSECHT [KRT36] | 2.42 ± 0.12 | 2.37 ± 0.092 | – | – |
| LFEAGDATLASDLQDWASVGAFL [FOXJ1] | – | – | 3.59 ± 0.15 | 3.49 ± 0.34 |
| VESFKTKVSYLKQKGLGGAMVWAL [CHIT1] | 2.54 ± 0.49 | 2.7 ± 0.56 | – | – |
| GQGPKPEADSQEQGHPQTGCECED [GAGE1] | 5.64 ± 0.15 | 5.4 ± 0.31 | – | – |
| STETLVHVSDEDNNADLCLTDDKQ [DLC1] | 5.59 ± 0.36 | 5.59 ± 0.38 | – | – |
| EDLKGHVAETSGETIQGFWLLTKI [TPRG1] | 2.37 ± 0.59 | 2.07 ± 0.3 | – | – |
| DRGIKGDITPLMAAANGGHVKIVK [ANKRD17] | 4.42 ± 0.11 | 4.38 ± 0.085 | – | – |
| FCASTRLPPTPLLLFPEEEATNGR [AUP1] | 3.03 ± 0.59 | 3.79 ± 0.31 | – | – |
| SALPTGSPKRGTAPGDLSATEPAT [FBF1] | 5.32 ± 0.36 | 5.32 ± 0.086 | – | – |
| AAWKGRVLLPETQKRQQLSEDTLT [C22orf31] | 3.83 ± 0.31 | 3.84 ± 0.38 | – | – |
| VGLIRNLALCPANHAPLREQGAIP [CTNNB1] | 3.21 ± 0.24 | 3.32 ± 0.32 | – | – |
| PRSCSSGPAGPYLLSKKGALQSRA [PLEKHN1] | 3.96 ± 0.52 | 4.29 ± 0.39 | – | – |
| TALALEPDAIRSRSNTLRERSQVR [PCDHGC5] | 4.64 ± 0.14 | 4.69 ± 0.18 | – | – |
| AVSVMKKCRKLEDPQSSSQVTTS [SLC19A2] | – | – | 4.36 ± 0.23 | 4.37 ± 0.19 |
| PFSEFFKLRFNRKKKGMYRKAITE [PWWP2B] | 2.35 ± 0.43 | 2.9 ± 0.27 | – | – |

Reference: the supplement of paper PMC10567573
